Numbering of substitutions follows the chain as printed. Like-named read-outs stand apart in the source and are kept apart here. Each block holds one binder with its values, some of them ahead of it.
What was measured:
[1] = molecular target: T1, human TIGIT expressed on cells (human, UniProt Q495A1 25-244); experiment: cell-based or functional assay
T1 sequence: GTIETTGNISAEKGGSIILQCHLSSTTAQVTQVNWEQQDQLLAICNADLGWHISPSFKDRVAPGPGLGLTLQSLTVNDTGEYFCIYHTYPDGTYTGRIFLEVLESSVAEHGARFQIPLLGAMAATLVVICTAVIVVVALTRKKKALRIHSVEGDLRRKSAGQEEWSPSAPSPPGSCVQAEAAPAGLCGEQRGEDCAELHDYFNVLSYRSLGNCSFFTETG

[2] = molecular target: T1, human TIGIT expressed on cells; experiment: cell-based or functional assay; remark: listed apart in the source
[3] = molecular target: T1, human TIGIT expressed on cells; experiment: cell-based ELISA, panel 'Binding to human TIGIT-CHO-K1 cells'
[4] = molecular target: T2, rhesus TIGIT expressed on CHO-K1 cells (rhesus monkey); experiment: cell-based ELISA, panel 'Binding to rhesus TIGIT-CHOK1 cells'
T2 construct: also called rhesus TIGIT-CHOK1 cells; Cyno/Rhesus TIGIT

[5] = molecular target: T3, human TIGIT-Fc protein (human, UniProt Q495A1 25-141); experiment: SPR, Biacore T200, antibody captured on anti-rat IgG Fc, TIGIT-Fc in solution, 1:1 Langmuir fit
T3 construct: not shown: Fc part
T3 sequence: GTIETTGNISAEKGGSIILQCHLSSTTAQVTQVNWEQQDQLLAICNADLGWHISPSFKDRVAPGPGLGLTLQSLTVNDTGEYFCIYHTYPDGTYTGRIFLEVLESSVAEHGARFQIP
Protocol: (§1) The kinetic binding activity of anti-human TIGIT antibodies 14A6 and 31C6 (made as described in Example 1) and of commercial antibody MBSA43 was measured by surface plasmon resonance using a Biacore T200 system (Biacore, GE Healthcare, Piscataway, N.J.). Approximately 5000 RU of Anti-mouse IgG, GE Healthcare Catalog Number BR-1008-38, or approximately 13,000 RU of Goat Anti-Rat IgG Fc gamma, Fragment Specific, Jackson ImmunoResearch Catalog Number 112-006-071, was immobilized via amine coupling chemistry onto a Series S CM5 sensor chip, catalog number BR-1005-30. Mouse anti-human TIGIT clones, 31C6 and MBSA43, were each injected over the immobilized anti-mouse surfaces at 1 ug/mL for a capture level of 40 RU. Rat anti-human TIGIT clone 14A6 was injected over the immobilized anti-rat surfaces at 1 ug/mL for a capture level of 40 RU. HBS-EP+ buffer (BR-1006-69) was used as the running buffer with a flow rate of 30 μL/min. Varying concentrations of human TIGIT-His protein or TIGIT-Fc protein, ranging from 0.29 nM to 40 nM, at a flow rate of 45 μL/min were injected over the antibody surfaces. Following each Mouse anti-human TIGIT injection cycle for clones 31C6 and MBSA43, the Series S CM5 chip surface was regenerated using one three-minute injection of 10 mM Glycine pH 1.7 at a flow rate of […]. […]

[6] = molecular target: T4, Human TIGIT-His (extracellular domain of hTIGIT with a histidine tag) (human, UniProt Q495A1 25-141); experiment: SPR, Biacore T200, antibody captured on anti-rat IgG Fc, TIGIT-His in solution, 1:1 Langmuir fit
T4 construct: also called hTIGIT-His; hTIGIT-HIS
T4 sequence: T3 sequence
Protocol: as §1

[7] = molecular target: T1, human TIGIT expressed on cells; experiment: cell-based ELISA blocking assay: binding of hCD155-hFc to human TIGIT-CHO-K1 cells, antibody titrated
[8] = molecular target: T1, human TIGIT expressed on cells; experiment: cell-based ELISA, panel 'Binding to human TIGIT-CHO K1 cells'
[9] = molecular target: T2, rhesus TIGIT expressed on CHO-K1 cells; experiment: cell-based ELISA, panel 'Binding to rhesus TIGIT CHO K1 cells'
[10] = molecular target: T1, human TIGIT expressed on cells; experiment: cell-based ELISA, panel 'Binding to hTIGIT-CHO'
[11] = molecular target: T2, rhesus TIGIT expressed on CHO-K1 cells; experiment: cell-based ELISA, panel 'Binding to rhesus TIGIT-CHO'
[12] = molecular target: T3, human TIGIT-Fc protein; experiment: SPR, Biacore T200, antibody captured on anti-mouse IgG, TIGIT-Fc in solution, 1:1 Langmuir fit
Protocol: as §1

[13] = molecular target: T4, Human TIGIT-His (extracellular domain …); experiment: SPR, Biacore T200, antibody captured on anti-mouse IgG, TIGIT-His in solution, 1:1 Langmuir fit
Protocol: as §1

[14] = molecular target: T1, human TIGIT expressed on cells; experiment: cell-based ELISA blocking assay: binding of hCD155-hFc to human TIGIT-CHO-K1 cells, antibody titrated; remark: listed apart in the source

T2 sequence (chain, as listed by the source): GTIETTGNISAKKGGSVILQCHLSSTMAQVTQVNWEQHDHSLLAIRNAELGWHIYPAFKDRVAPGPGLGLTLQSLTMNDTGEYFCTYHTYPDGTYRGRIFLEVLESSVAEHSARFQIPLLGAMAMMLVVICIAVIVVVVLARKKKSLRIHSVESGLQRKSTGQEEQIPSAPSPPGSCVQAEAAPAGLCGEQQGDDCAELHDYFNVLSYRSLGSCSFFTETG

B3: MEB125.31C6.A1.205 VH5/VL4 (antibody, human IgG1, V domains shown)
VH: EVQLVQSGAEVKKPGSSVKVSCKASGYTFSSYVMHWVRQAPGQGLEWIGYIDPYNDGAKYAQKFQGRVTLTSDKSTSTAYMELSSLRSEDTAVYYCARGGPYGWYFDVWGQGTTVTVSS
VL: DIQMTQSPSSLSASVGDRVTITCRASEHIYSYLSWYQQKPGKVPKLLIYNAKTLAEGVPSRFSGSGSGTQFTLTISSLQPEDVATYYCQHHFGSPLTFGQGTRLEIK
- EC50 of IL-2 rescue in hTIGIT-Jurkat / hCD155-JY co-culture [1]: 1.2 µg/mL

B4: 14A6 (rat anti-human TIGIT antibody, clone LB155.14A6.G2.A8) (antibody, V domains shown)
VH: EVQLQESGPGLVKPSQSLSLTCSVTGSSIASDYWGWIRKFPGNKMEWMGFITYSGSTSYNPSLKSRISITRDTSKNQFFLQLHSVTTDDTATYSCARMPSFITLASLSTWEGYFDFWGPGTMVTVSS
VL: DIQMTQSPSLLSASVGDRVTLNCKASQSIHKNLAWYQQKLGEAPKFLIYYANSLQTGIPSRFSGSGSGTDFTLTISGLQPEDVATYFCQQYYSGWTFGGGTKVELK
notes: also called 14A6 (rIgG2a/K)
- EC50 of IL-2 rescue in hTIGIT-Jurkat / THP-1 co-culture [2]: 0.19 µg/mL
- IL-2 rescue relative to MBSA43 (10 µg/ml) [2]: 82%
- increase in IFNγ production, BC4-clone 49 T cells with JY-hCD155 cells [2]: ~2 fold
- EC50 (read off the curve) [3]: ~0.1 µg/mL
- EC50 (read off the curve) [4]: ~0.2 µg/mL
- Kd [5]: 3.12 pM
- Kd [6]: 3.09 pM
- IC50 (read off the curve) [7]: ~0.1 µg/mL

B6: 31C6 (mouse anti-human TIGIT antibody, clone MEB125.31C6.A1.205) (antibody, mouse IgG1, V domains shown)
VH: EVQLQQSGPELVKPGSSVKMSCKASGYTFSSYVMHWVKQKPGQGLEWIGYIDPYNDGAKYNEKFKGKATLTSDKSSSTAYMELSSLTSEDSAVYYCARGGPYGWYFDVWGAGTTVTVSS
VL: DIQMTQSPASLSASVGETVTITCRASEHIYSYLSWYQQKQGKSPQLLVYNAKTLAEGVPSRFSGSGSGTQFSLKINSLQPEDFGTYYCQHHFGSPLTFGAGTTLELK
notes: Mouse IgG1/kappa; also called 31C6 (mIgG1/K); MEB125.31C6.A1.205 mIgG1
- EC50 of IL-2 rescue in hTIGIT-Jurkat / THP-1 co-culture [2]: 0.14 µg/mL
- EC50 of IL-2 rescue in hTIGIT-Jurkat / hCD155-JY co-culture [2]: 0.73 µg/mL
- IL-2 rescue relative to MBSA43 (10 µg/ml) [2]: 118%
- increase in IFNγ production, BC4-clone 49 T cells with JY-hCD155 cells [2]: ~2 fold
- EC50 (read off the curve) [10]: ~0.03 µg/mL
- EC50 (read off the curve) [11]: ~0.06 µg/mL
- Kd [12]: 10.9 pM
- Kd [13]: 34.4 pM
- IC50 (read off the curve) [14]: ~0.9 µg/mL

Second part, the binder after the results:

- EC50 of IL-2 rescue in hTIGIT-Jurkat / hCD155-JY co-culture [1]: 0.62 µg/mL
B1: MEB125.31C6.A1.205 VH4/VL1 (antibody, human IgG1, V domains shown)
VH: B3 VH with S16A, A79V
VL: B3 VL with V43A, Q70D, V83F

- EC50 of IL-2 rescue in hTIGIT-Jurkat / hCD155-JY co-culture [1]: 1.2 µg/mL
B2: MEB125.31C6.A1.205 VH5/VL3 (antibody, human IgG1, V domains shown)
VH: B3 VH
VL: B3 VL with Q70D

- EC50 of IL-2 rescue in hTIGIT-Jurkat / THP-1 co-culture [2]: 0.24 µg/mL
- increase in IFNγ production, BC4-clone 49 T cells with JY-hCD155 cells [2]: ~2 fold
- EC50 (read off the curve) [8]: ~100 µg/mL
- EC50 (read off the curve) [9]: ~0.05 µg/mL
B5: 28H5 (mouse anti-human TIGIT antibody, clone TC167.28H5.H5) (antibody, mouse IgG1, V domains shown)
VH: DVQLQESGPGLVKPSQSLSLTCTVTGYSITSDYAWNWIRQFPGNKLEWMGYISNSGSASYNPSLKSRISITRDTSKNQFFLQLNSVTTEDTATYYCATLIYYDYGGAMNFWGQGTSVTVSS
VL: DIVMTQSHKFMSTSVGDRVSITCKASQGVSTTVAWYQQKPGQSPKLLIYSASYRYTGVPDRFTGSGSGTDFTFTISSVQSEDLAVYYCQHYYSTPWTFGGGTKLEIK
notes: Mouse IgG1/kappa

- EC50 of IL-2 rescue in hTIGIT-Jurkat / hCD155-JY co-culture [2]: 0.91 µg/mL
B7: Mouse human chimera MEB125.31C6.A1.205 IgG1 (antibody, V domains shown)
VH: B6 VH
VL: B6 VL

From patent publication US20200270346A1 (Merck Sharp & Dohme, published 2020)
